Laboratory results: the RNAGym collection of RNA variant scans (doi:10.7554/elife.90254)

B1: LINE1-mini (parent)
chain: GGCAGAGCUCAACACAGCGUGGCAAAGUGGCUGUGGCUAGACUGCC

Variants of: B1
Assay: self-cleavage, relative activity (ratio to wild type); higher = more cleavage; in vitro, sequencing; the parent is a self-cleaving ribozyme

Variant	self-cleavage
GGCAGUGCUCAACACAGCGUGGCAAAGUGGCUGUGGCUACACUGCC [A6U G40C]	0.15
GGCAGAGCUCAACACAGCGUGGCAAAGUGGCUGAGGCUAGACUGCC [U34A]	0.1
GGCAUAGCUCAACACAGCGGGGCAAAGUGGCUGUGGCUAGACUGCC [G5U U20G]	0.06
GGCAGAGCUCCCCACAGCGUGGCAAAGUGGCUGUGGCUAGACUGCC [A11C A12C]	0.02
GGCAGAGCUCAACACAGCGUGGGAAAGUGGCUGUGGCUAAACUGCC [C23G G40A]	0.07
GGCAGAGCUCAACACAGCGUCGCAAAGUGGCUGCGGCUAGACUGCC [G21C U34C]	0.19
GGCAGAGCUCAACACAGCGUGGUAAAGUGGCUGUGGCUAGACUACC [C23U G44A]	0.64
GGCAGAGCUCAACACAGCGUGUCAAAGUGGCUGUGGAUAGACUGCC [G22U C37A]	0.06
GGCAGAGCUCAACACAGCGUGGCAAAUUGGCUGUGGCUAGAGUGCC [G27U C42G]	0.04
GGAAGAGCUCAACACAGCGUGGCAAAGUGGCAGUGGCUAGACUGCC [C3A U32A]	0.12
GGCAGAGCUCAACUCUGCGUGGCAAAGUGGCUGUGGCUAGACUGCC [A14U A16U]	0.1
GGCAGAGCUCAACACAGCGUGGCAAAGUGGCUGUGUCUAGACCGCC [G36U U43C]	0.06
GGCAGAGCUCAACACAGCGUGGCAAAGUCGCUGUGGCUAGGCUGCC [G29C A41G]	0.21
GGCAGUGCUCAACACAGCGUGGCAAAGUGGCUUUGGCUAGACUGCC [A6U G33U]	0.16
GGCAGAGCUCAUCACAGCGUGGCAAAGUGGCUGUGGCUAGUCUGCC [A12U A41U]	0.18
GGCAUAGCUGAACACAGCGUGGCAAAGUGGCUGUGGCUAGACUGCC [G5U C10G]	0.03
GGCAGAGCUCAACACAGCGUGGCAGAGUGGCUGUGGCUUGACUGCC [A25G A39U]	0.81
GGCAGAGCUCAACACAGCGUGGCCACGUGGCUGUGGCUAGACUGCC [A24C A26C]	0.28
GGCAGAGCUCAACACAGCGUGGCAAAGUGACUGUGGCUAGAUUGCC [G30A C42U]	0.6
UGCAGAGCUCAACACAGCGUGGCAAAUUGGCUGUGGCUAGACUGCC [G1U G27U]	0.25
GGCAGAGCUCAACACAGCGUGGCAUAGUGGCUGUGCCUAGACUGCC [A25U G36C]	0.05
GGCAGAGCUCAACACACCGUGGCAAAGUGGCUGUGGCUAGAUUGCC [G17C C42U]	0.1
GGAACAGCUCAACACAGCGUGGCAAAGUGGCUGUGGCUAGACUGCC [C3A G5C]	0.31

Variant	self-cleavage
GGCAGAGCUAAACACAGCGUGGCAAAGUGGCUGUGGCUAGACUGCG [C10A C46G]	0.04
GGCAGAGCUCAACACGGCGUGGCAAAUUGGCUGUGGCUAGACUGCC [A16G G27U]	0.68
GGCAGAACUCAACACAGUGUGGCAAAGUGGCUGUGGCUAGACUGCC [G7A C18U]	0.12
GGCAGAGCUCAACACAGAGUGGUAAAGUGGCUGUGGCUAGACUGCC [C18A C23U]	1.29
GGCAGACCUCAACACAGCGUGGCAAAGUGGCUGUGGGUAGACUGCC [G7C C37G]	0.03
GGCAGAGCUCAACACAGCGGGGCAAAGUGGCUGUGGCUAGACUCCC [U20G G44C]	0.26
GGCAGAGCUCAACACAGCGUGGCAAAGUGGCCGUAGCUAGACUGCC [U32C G35A]	0.06
GGCAGAGCUCAACACAGCGUGGCAAAGUGGCAGUGUCUAGACUGCC [U32A G36U]	0.05
GGCAGAGCACAACACAGCGUGGCAAAGUGGCUGUGGCUAGACUACC [U9A G44A]	0.31
GGCAGAGCUCGACACAGCGUGGCAAAGCGGCUGUGGCUAGACUGCC [A11G U28C]	0.03
GGCAGAGCUCGACACAGCGUGGCAAAGAGGCUGUGGCUAGACUGCC [A11G U28A]	0.03
GGCAGAGCUCAUCACAGCGUGGCAAAGUGGCUGUGGCUAGAAUGCC [A12U C42A]	0.06
GGAAGAGCUCAACACAGCGUGGCAAAGUGGCUGAGGCUAGACUGCC [C3A U34A]	0.11
GGCCGAGCUCAACACAGCGUGGCAAAGUUGCUGUGGCUAGACUGCC [A4C G29U]	0.45
GGCAGAGAUCAACACGGCGUGGCAAAGUGGCUGUGGCUAGACUGCC [C8A A16G]	0.22
GGCAGACCUCAACAGAGCGUGGCAAAGUGGCUGUGGCUAGACUGCC [G7C C15G]	0.08
GGCAGAGCUCAACACAGCGUGGCAAAGGGGCUGUGACUAGACUGCC [U28G G36A]	0.12
GGCAGAGCUCAACACAGCGUGGCAAAGUGACUGUGGCUAGUCUGCC [G30A A41U]	0.6
GGCAGAGCUCAACACAGCGUGGCAAAGUGGCUGUGGCUAGACUCAC [G44C C45A]	0.05
GGCAGACCUCAACACAGCGUGGCAAAGUGGAUGUGGCUAGACUGCC [G7C C31A]	0.09
GGCAGAGCUCAACACAGCGUGGCAAAGUGGCUGUGGCUAGACCCCC [U43C G44C]	0.08
GGCAGGGUUCAACACAGCGUGGCAAAGUGGCUGUGGCUAGACUGCC [A6G C8U]	0.22
GGCACAGCUCAACACAGCGUGGCUAAGUGGCUGUGGCUAGACUGCC [G5C A24U]	0.07

Variant	self-cleavage
GGCAGAGCUCAACACAGCGUGGCAAAGUGGCUGUGGCUGGUCUGCC [A39G A41U]	0.07
GGCGGAGCUCAACACAGCGUGGCAAAGUGGCUGUUGCUAGACUGCC [A4G G35U]	0.19
GGCAGGGCUCAACACAGCGUAGCAAAGUGGCUGUGGCUAGACUGCC [A6G G21A]	0.23
GGCAGAGCUCAACACAGCGUGGCAAAGUGGCUGUGCCUAGACUUCC [G36C G44U]	0.08
GGCAUAGCUCAACACAGCGUGGCAAAGUGGCUGUGGCUAUACUGCC [G5U G40U]	0.09
GGCAGAGCUCAACACAGCGUGGCAAAGUAGCUGUGGCUAGACAGCC [G29A U43A]	0.16
GGCAGAGCUCAACACAGCGUGGCAAAGUGGCUGUUGCUAUACUGCC [G35U G40U]	0.12
GGCAGAGCUCAACACAGCGUGGCAAUGUGGCUGUGGCUAGGCUGCC [A26U A41G]	0.37
GUCAGAGCUCAACACUGCGUGGCAAAGUGGCUGUGGCUAGACUGCC [G2U A16U]	0.02
GGCAGAUCUCAACACAGCGUGGCAAAGUGGCUGUCGCUAGACUGCC [G7U G35C]	0.08
GGCAGAGCUCAACACAGCGUGGAAAAGUGGCUGUGGCUUGACUGCC [C23A A39U]	0.73
GGCAGCGCUCAACACAGCGUGGCAAAGUGGCUGUGGCUACACUGCC [A6C G40C]	0.1
GGCAGAGCUCAACACAGGGCGGCAAAGUGGCUGUGGCUAGACUGCC [C18G U20C]	0.4
GGCAGAGCUCAACACGGCGUGGCAAAGUGGCUGUGGCUAGACUGAC [A16G C45A]	0.14
GGCAGAGCUCAACACGGCGUGGCAAAGUGGCUGUGGCUAGACUGUC [A16G C45U]	0.45
GGCAGAGCUCAACACAGCGUGGCAAAGUGGCUGUGACUAAACUGCC [G36A G40A]	0.29
GGCAGAGCUCAACACAGCGUGGCAAAGUGGCUGUGGCUAGAAUGCC [C42A]	0.17
GGCAGAGCUCGACACAGCGUGGCAAAGUUGCUGUGGCUAGACUGCC [A11G G29U]	0.03
GGCAGAGCUCAACACAGGGUGGCAAAGUGGCUGUGGCCAGACUGCC [C18G U38C]	0.16
GGCAGAGCUCAACACAGCCUGGCAAAGUGGCUGUGGCUACACUGCC [G19C G40C]	0.06
GGCAGAGUACAACACAGCGUGGCAAAGUGGCUGUGGCUAGACUGCC [C8U U9A]	0.32
GGCAGAGCUCAACACAUUGUGGCAAAGUGGCUGUGGCUAGACUGCC [G17U C18U]	0.12
GGCAGAGCUCAACACAGCGUGGCAAAGUGGCUGAGGCUACACUGCC [U34A G40C]	0.04

Variant	self-cleavage
GGCAGAGCUCAACACAUCGUGGCAAAGUGGCUGCGGCUAGACUGCC [G17U U34C]	0.05
GGCAGAGAUCAACACAGCGUGGCAAAGAGGCUGUGGCUAGACUGCC [C8A U28A]	0.17
GUCAGAGCUCAACACACCGUGGCAAAGUGGCUGUGGCUAGACUGCC [G2U G17C]	0.05
GGCAGAGCUCAACUCAGCGUGCCAAAGUGGCUGUGGCUAGACUGCC [A14U G22C]	0.27
GGCAGAGCUCAACACAGCGUGGCAAAGCGGCUGUAGCUAGACUGCC [U28C G35A]	0.21
GGCAGAGCUCAACACAGCGUGGCAGAGUGGCUGUGGCUAUACUGCC [A25G G40U]	0.07
GGCAGAGCUCAACACAGCGUGGCAAAGAGGCUGUGGCUAGACUGCA [U28A C46A]	1.23
GGCAGAGCUCAACAGAGCGUGGCAAAGAGGCUGUGGCUAGACUGCC [C15G U28A]	0.04
GGCAGAGCUCAACACAGCGUGGCAAAGUGAUUGUGGCUAGACUGCC [G30A C31U]	0.14
GGCAGACCUGAACACAGCGUGGCAAAGUGGCUGUGGCUAGACUGCC [G7C C10G]	0.03
GACAGAGCUCAACACAGCGUGGCAAAGUGUCUGUGGCUAGACUGCC [G2A G30U]	1.4
GGCAGAGCUCAACACAGCGUGGCAAAGUGGCUGGGGCUAGACUGUC [U34G C45U]	0.19
GGUAGAGCCCAACACAGCGUGGCAAAGUGGCUGUGGCUAGACUGCC [C3U U9C]	0.07
GGCAGAGCUCAACACAGCGUGGAAAAGUGGCUGUGCCUAGACUGCC [C23A G36C]	0.07
GGCAGAGCUCAACACAGCGUGGCAAAGUGGCUGUGGUUGGACUGCC [C37U A39G]	0.02
GGCAGAGCUCAAAACAGCGUCGCAAAGUGGCUGUGGCUAGACUGCC [C13A G21C]	0.14
GGCAGAGCUCAACACCGCGUUGCAAAGUGGCUGUGGCUAGACUGCC [A16C G21U]	0.07
GGCAGAGCUCAACACAGCGUGGCAAAGGGGCUGGGGCUAGACUGCC [U28G U34G]	0.23
GGCAGAUCUCAACACAGCCUGGCAAAGUGGCUGUGGCUAGACUGCC [G7U G19C]	0.05
CGCAGAGCUCAACACAGCGUGGCAAAGUGGCUGUGGCUAGUCUGCC [G1C A41U]	0.1
GGCAGAGCUCAACACAGCGUGGCAAAGUGGCUGUGGCUAGGCGGCC [A41G U43G]	0.05
GGCAGAACUCAACACAGCGUGGCAAAGUGGCUGUGGCUAGAUUGCC [G7A C42U]	0.16
GGCAGAACUCAACACAGCGUGGCAAAGUGGCUGUGGCUAGAAUGCC [G7A C42A]	0.18

Variant	self-cleavage
GGCAGAGCUCAACACAGCUCGGCAAAGUGGCUGUGGCUAGACUGCC [G19U U20C]	0.76
GGCAGAGCUCAAGACAGCGUGGCAAAGUGGAUGUGGCUAGACUGCC [C13G C31A]	0.16
GGCAGAGCUCAACACAGCGUGGCACAGUGGCUGUGGCUAGACGGCC [A25C U43G]	0.12
GGCAGAGCUCAACACAGCGUGGCAAAGUGGCUGUCGCUAGACUCCC [G35C G44C]	0.05
GGCGGAGCUCAACACAGCGUGGCAAAGUGGUUGUGGCUAGACUGCC [A4G C31U]	0.14
GGCAGAGCUCGACACAGCGUGGCAAAGUGGCUGUGGCGAGACUGCC [A11G U38G]	0.02
GGCAGAGCUCAACACAGCGUGGCAUAGUGUCUGUGGCUAGACUGCC [A25U G30U]	1.75
GGCAGAGCUCAACACAGCGUGGCAAAGUGGCUGCGGCCAGACUGCC [U34C U38C]	0.07
GGCACAGCUCAACACAGCGUGGCAAAUUGGCUGUGGCUAGACUGCC [G5C G27U]	0.09
GGCAGAGCUCAACACAGCGUGGCAAAGUCGCUGUGGCUAGACUUCC [G29C G44U]	0.37
GGCAGAGCUCAACACAGCGUGCCAAAGUGGCUGUGGCUUGACUGCC [G22C A39U]	0.55
GGCAGAGCUCAACACAGUGUGGCAAAGUGGCUGUGGCUAGACCGCC [C18U U43C]	0.09
GGAAGAGCUCAACACAGCGUGGCAAACUGGCUGUGGCUAGACUGCC [C3A G27C]	0.24
GGCAGAGCUCAACACCGUGUGGCAAAGUGGCUGUGGCUAGACUGCC [A16C C18U]	0.09
GGCACAGCUCAACACAGCGUGGCAAAGUGGCUAUGGCUAGACUGCC [G5C G33A]	0.09
GGCAGAGCUCGACACAGCGUGGCAAAGUGGCUGUGGCUAGCCUGCC [A11G A41C]	0.03
GGCAGAGGUCAACACAGCGUGGCAAAGUGGCUGUGGCUGGACUGCC [C8G A39G]	0.06
GGCAUAGCUCAACACAGGGUGGCAAAGUGGCUGUGGCUAGACUGCC [G5U C18G]	0.06
GGCAGAGCUCAACUCAGCGUGGCAAAGUGGCUCUGGCUAGACUGCC [A14U G33C]	0.05
GGCAGAGCUCAACAAAGCGUGGCAAAGUGCCUGUGGCUAGACUGCC [C15A G30C]	0.05
